# Experimental data as given in US20230416326A1 (LETO LABORATORIES, published 2023).
# T1: IL2Rα-his (UniProt P01589 22-240, limits assumed)
# T1 construct: Made in-house; also called interleukin-2 receptor alpha; CD25; not shown: his tag
# T1 sequence (looked up): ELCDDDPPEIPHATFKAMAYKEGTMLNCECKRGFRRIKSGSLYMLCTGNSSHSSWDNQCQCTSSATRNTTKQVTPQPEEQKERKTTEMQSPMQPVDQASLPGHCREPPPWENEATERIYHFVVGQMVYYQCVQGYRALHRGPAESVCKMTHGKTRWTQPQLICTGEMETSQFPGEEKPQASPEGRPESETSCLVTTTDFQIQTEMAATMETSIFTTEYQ
# T2: IL-2/15R β and γ on Mo7e cells (UniProt P14784 27-551; P31785 23-369, limits assumed)
# T2 sequence (looked up) 1: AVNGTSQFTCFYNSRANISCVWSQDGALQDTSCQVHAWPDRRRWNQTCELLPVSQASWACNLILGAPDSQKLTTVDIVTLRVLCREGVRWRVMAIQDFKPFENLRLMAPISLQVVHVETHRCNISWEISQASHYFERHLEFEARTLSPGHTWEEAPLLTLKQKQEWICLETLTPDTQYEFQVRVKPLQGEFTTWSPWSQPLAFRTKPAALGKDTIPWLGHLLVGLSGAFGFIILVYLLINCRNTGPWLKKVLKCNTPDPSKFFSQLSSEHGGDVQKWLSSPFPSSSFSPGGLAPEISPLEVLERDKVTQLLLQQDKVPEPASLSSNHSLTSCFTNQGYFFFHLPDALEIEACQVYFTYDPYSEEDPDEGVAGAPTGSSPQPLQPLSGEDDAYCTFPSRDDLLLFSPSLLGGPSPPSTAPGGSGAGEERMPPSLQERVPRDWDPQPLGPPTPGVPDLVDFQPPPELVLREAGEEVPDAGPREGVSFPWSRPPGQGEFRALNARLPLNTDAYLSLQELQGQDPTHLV
# T2 sequence (looked up) 2: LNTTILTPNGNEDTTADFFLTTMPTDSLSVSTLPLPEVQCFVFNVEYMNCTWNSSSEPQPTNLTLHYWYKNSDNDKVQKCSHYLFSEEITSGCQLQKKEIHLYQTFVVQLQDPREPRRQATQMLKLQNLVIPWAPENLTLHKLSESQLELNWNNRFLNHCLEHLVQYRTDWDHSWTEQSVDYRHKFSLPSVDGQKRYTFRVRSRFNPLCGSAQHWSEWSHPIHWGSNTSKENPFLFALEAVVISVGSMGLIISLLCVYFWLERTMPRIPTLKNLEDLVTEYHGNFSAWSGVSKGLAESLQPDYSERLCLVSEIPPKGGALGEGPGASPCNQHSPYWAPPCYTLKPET
# Experiments:
# IL2Rα-his = target: T1, IL2Rα-his; experiment: BLI (Octet RED96), receptor immobilised on sensor
# Description: (§1) BLI was used to determine the affinity of a target protein for a receptor by a method with reference to (Estep, P et al., High throughput solution Based measurement of antibody-antigen affinity and epitope binning. MAbs, 2013.5 (2): p. 270-8). The receptor proteins IL-15Rα-his, IL2Rα-his, and IL2/15Rβ-Fc/Fc used in the experiment were each produced by the company of the present application, and both an IL-2 derivative without IL2Rα binding and an IL-2 complex without IL2Rα binding were prepared according to the description in Patent Publication CN111018961A. An IL-15(N72D)/Sushi-hIgG1Fc complex was prepared according to the literature (K.-p. Han et al./Cytokine 56 (2011) 804-810). A buffer was prepared according to the following formula: 10 mM HEPES, 150 mM NaCl, 3 mM EDTA, 0.1% BSA, and 0.05% tween20. Receptor proteins were each pre-immobilized in advance on a corresponding sensor. Then the steps of baseline, loading, baseline, association, and dissociation were conducted according to the established method (see Estep, P et al., High throughput solution Based measurement of antibody-antigen affinity and epitope binning. MAbs, 2013. 5 (2): p. 270-8). Data acquisition and analysis were conducted using the Fortebio Octet RED96 software Data acquisition 11.0 and Data analysis 11.0, respectively. Results are shown in Table 1 (the smaller the value, the stronger the affinity).
# IL2/15Rβ-Fc/Fc = target: T3, IL2/15Rβ-Fc/Fc (UniProt P14784 27-240); experiment: BLI (Octet RED96), receptor immobilised on sensor
# T3 construct: Made in-house; The label 'Fc/Fc' is not explained; it is read here as one receptor-Fc chain paired with an Fc-only chain; also called IL2Rβ; CD122; not shown: Fc; second Fc chain implied by the label 'Fc/Fc'
# Description: as §1
# IL-15Rα-his = target: T4, IL-15Rα-his (Homo sapiens (Human), UniProt Q13261 31-205, limits assumed); experiment: BLI (Octet RED96), receptor immobilised on sensor
# T4 construct: also called interleukin-15 receptor alpha; not shown: his tag
# Description: as §1
# [1] = target: T2, IL-2/15R β and γ on Mo7e cells; experiment: cell-based or functional assay
# Sushi-hIgG4Fc = target: T5, Sushi-hIgG4Fc; experiment: co-expression in HEK293, purification, SEC-HPLC
# T5 construct: IL15Rα Sushi domain fused to human IgG4 Fc; also called Sushi-Fc
# Description: The IL-2/15 chimera 1 was co-expressed with each of the Sushi-hIgG1Fc, Sushi-hIgG4Fc, and Sushi-mlgg2aa.1Fc, and heterodimer complexes could be generated during expression, which were respectively named as complex 1, complex 2, and complex 3 and all carried an Fc tag. Mabselect sure (Protein A, GE healthcare) was used for affinity purification, and a purification method was in accordance with instructions of a purification packing. Then further purification was conducted by gel filtration chromatography (GFC) (Superdex200 […], GE Healthcare) to obtain a protein with high purity, and the aggregate was removed. The purity analysis was conducted using a high-performance liquid chromatography (HPLC) molecular sieve column (SEC-HPLC), and the results are shown in FIGS. 1A-1C.
binding result (IL2Rα-his),Kd (IL2/15Rβ-Fc/Fc) [nM],binding result (IL-15Rα-his),"EC50 (nM), promotion of Mo7e cell proliferation [1] [nM]",Kd (IL-15Rα-his) [nM],binding result (Sushi-hIgG4Fc),Binder
no binding (tested: 100 nM),0.512,no binding (tested: 100 nM),0.319,–,–,"Complex 3 (heterodimer complex of IL-2/15 chimera 1 and Sushi-mIgG2aa.1Fc) (Fc fusion, also called IL-2/15 chimera 1-Sushi-Fc) chain 1: APTSSSTKKTQLQLEHLLLDLQMILNGIQSMHIDATLYTESDVHPSCKVTAMKCFLLELQVISLESGDASIHDTVENLIILANNSLSSNGNVTESGCKECEELEEKNIVEFLNRFITFAQSIISTLT chain 2: ITCPPPMSVEHADIWVKSYSLYSRERYICNSGFKRKAGTSSLTECVLNKATNVAHWTTPSLKCIREPRGPTIKPCPPCKCPAPNAEGAPSVFIFPPKIKDVLMISLSPIVTCVVVDVSEDDPDVQISWFVNNVEVHTAQTQTHREDYNSTLRVVSALPIQHQDWMSGKEFKCKVNNKQLPSSIERTISKPKGSVRAPQVYVLPPPEEEMTKKQVTLTCMVTDFMPEDIYVEWTNNGKTELNYKNTEPVLDSDGSYFMYSKLRVEKKNWVERNSYSCSVVHEGLHNHHTTKSFSRTPGK"
no binding (tested: 100 nM),973,–,2.25,3.89,–,"IL-2/15 chimera 1 (ligand, also called modified IL-2 molecule) APTSSSTKKTQLQLEHLLLDLQMILNGIQSMHIDATLYTESDVHPSCKVTAMKCFLLELQVISLESGDASIHDTVENLIILANNSLSSNGNVTESGCKECEELEEKNIVEFLNRFITFAQSIISTLT"
–,–,–,–,–,binds,"IL-2/15 chimera 2 (ligand, Chimera 1 with F at position 115 mutated back to W; position 115 corresponds to position 121 of natural IL-2) APTSSSTKKTQLQLEHLLLDLQMILNGIQSMHIDATLYTESDVHPSCKVTAMKCFLLELQVISLESGDASIHDTVENLIILANNSLSSNGNVTESGCKECEELEEKNIVEFLNRWITFAQSIISTLT"
